Data set [1] concerns the molecule itself. Description: SEC. On the technique in general: In gel filtration, larger molecules generally elute earlier.
Data set [2] deals with the molecule itself. The data set is described as follows: SEC. This is another data set of the same source.

This is an account of results in paper PMC2724291 (Nucleic Acids Research, 2009).

By stoichiometry N is commonly meant a count of units in the complex or per binding partner.

Like-named read-outs stand apart in the source and are kept apart here.

B1: hMBP-γ (H1 and H2 of the putative coiled-coil motif of ϕC31 Int fused to histidine-tagged maltose-binding protein) (domain or fragment, phage ϕC31, UniProt Q9T221 445-524, looked up)
chain: GKLTEAPEKSGERANLVAERADALNALEELYEDRAAGAYDGPVGRKHFRKQQAALTLRQQGAEERLAELEAAEAPKLPLD
As for B1, the “stoichiometry N” value in data set [1] turned out to be 2.

B2: hMBP-γ^E449K (domain or fragment, phage ϕC31, UniProt Q9T221 445-524, looked up)
chain: GKLTKAPEKSGERANLVAERADALNALEELYEDRAAGAYDGPVGRKHFRKQQAALTLRQQGAEERLAELEAAEAPKLPLD
Regarding B2, the binding result in data set [1] is listed as “binds”.

B3: wild-type ϕC31 integrase (Int) (enzyme, phage ϕC31, UniProt Q9T221 1-605, looked up)
chain: MDTYAGAYDRQSRERENSSAASPATQRSANEDKAADLQREVERDGGRFRFVGHFSEAPGTSAFGTAERPEFERILNECRAGRLNMIIVYDVSRFSRLKVMDAIPIVSELLALGVTIVSTQEGVFRQGNVMDLIHLIMRLDASHKESSLKSAKILDTKNLQRELGGYVGGKAPYGFELVSETKEITRNGRMVNVVINKLAHSTTPLTGPFEFEPDVIRWWWREIKTHKHLPFKPGSQAAIHPGSITGLCKRMDADAVPTRGETIGKKTASSAWDPATVMRILRDPRIAGFAAEVIYKKKPDGTPTTKIEGYRIQRDPITLRPVELDCGPIIEPAEWYELQAWLDGRGRGKGLSRGQAILSAMDKLYCECGAVMTSKRGEESIKDSYRCRRRKVVDPSAPGQHEGTCNVSMAALDKFVAERIFNKIRHAEGDEETLALLWEAARRFGKLTEAPEKSGERANLVAERADALNALEELYEDRAAGAYDGPVGRKHFRKQQAALTLRQQGAEERLAELEAAEAPKLPLDQWFPEDADADPTGPKSWWGRASVDDKRVFVGLFVDKIVVTKSTTGRGQGTPIEKRASITWAKPPTDDDEDDAQDGTEDVAA
With B3, the binding result in data set [2] is “binds”.
